Laboratory results published in patent publication US20060051772A1 (LUDWIG INSTITUTE FOR CANCER RESEARCH, published 2006).

Biological target: HLA-DR molecule DRB1*0301 (human)
Assay: cell-based or functional assay

## WEKMKSSEKIVYVYM [peptide SSX-4 37-51]
  peptide titration assay: recognition by SSX-4 31-50 reactive CD4+ T cells from LAU 331, efficiency against peptide SSX-4 31-50: 3 fold
